Results on 1 molecule are retold here after patent publication US20040087013, “Stable macroscopic membranes formed by self-assembly of amphiphilic peptides and uses therefor” (published 2004).

The series has as its target T1, zuotin (ZUO1), yeast-purified fractions (Saccharomyces cerevisiae, UniProt P32527 SEQ:1-433).
T1 sequence: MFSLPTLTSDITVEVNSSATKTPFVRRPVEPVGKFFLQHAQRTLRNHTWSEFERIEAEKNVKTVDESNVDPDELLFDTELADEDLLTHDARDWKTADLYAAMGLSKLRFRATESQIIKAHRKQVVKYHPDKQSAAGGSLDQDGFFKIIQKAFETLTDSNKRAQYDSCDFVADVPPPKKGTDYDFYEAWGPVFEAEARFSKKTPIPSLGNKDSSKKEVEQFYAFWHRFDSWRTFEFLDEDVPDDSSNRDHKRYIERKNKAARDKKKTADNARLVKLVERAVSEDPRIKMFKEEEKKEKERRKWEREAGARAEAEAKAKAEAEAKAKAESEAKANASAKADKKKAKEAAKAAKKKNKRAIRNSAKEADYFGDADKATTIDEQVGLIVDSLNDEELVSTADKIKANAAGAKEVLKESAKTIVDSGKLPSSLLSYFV
The series can be described thus: EMSA; fraction FI; 2000-fold excess salmon sperm DNA. The following applies: tags: none; label: 32P; left-handed Z-DNA, 44mer alternating dG-Br5dC. Background: A gel shift assay detects complexes by their altered migration in electrophoresis.

Source text: In order to determine if these band shifts were the result of authentic Z-DNA binding, negatively supercoiled plasmids of pUC19 and pUC19(GC) were used as competitor DNAs in gel retardation competition assays.
A gel retardation assay was employed to detect proteins with affinity to left-handed Z-DNA. In these assays, two kinds of left-handed DNA probes were used. […] The other probe was derived from a synthetic 44mer oligo(dG-Br⁵dC)₂₂, labelled using Klenow polymerase with [α-³²P]dGTP, and stabilized in the Z-DNA conformation by 10 mM MgCl₂, or 0.1 mM Co(NH₃)₆³⁺. […] In the competition assays, supercoiled pUC19 and pUC19(CG) were added to the reaction samples separately. […] After electrophoresis, the gel was dried and exposed to X-ray film.

B1: oligo (dG-Br5dC)22 Z-form (dsDNA)
DNA 1: GCGCGCGCGCGCGCGCGCGCGCGCGCGCGCGCGCGCGCGCGCGC
DNA 2: GCGCGCGCGCGCGCGCGCGCGCGCGCGCGCGCGCGCGCGCGCGC
modifications: 5-bromo-dC at all C [5-bromo-dC at all C (2,4,6,8,10,12,14,16,18,20,22,24,26,28,30,32,34,36,38,40,42,44 of each strand)]
Take B1: the binding result is on record as “binds”.
